Experimental data reported in US20220170006A1, “A PSEUDO-RANDOM DNA EDITOR FOR EFFICIENT AND CONTINUOUS NUCLEOTIDE DIVERSIFICATION IN HUMAN CELLS” (THE BROAD INSTITUTE, INC., priority 2019, published 2022).

How the values were obtained:
[1] = test system: EGFP gene solely under the control of a T7 promoter (pTarget) in HEK293T cells; assay: EGFP expression from pTarget driven by pEditor variants (T7 RNAP transcriptional activity); type: cell-based, human; conditions: HEK293T cells co-transfected with pTarget and pEditor variant; listed as pAPOEBC
Method: Each pEditor variant was introduced into HEK293T cells together with pTarget in which EGFP gene was solely under the control of a T7 promoter. […] Scale bar, 200 μm, which also applies to other micrographs. […] Cells transfected with pTarget and pEditor plasmids were incubated for 3 days before being harvested. pTarget plasmids were extracted and PCR reactions were performed to amplify the target region. Sequencing libraries were prepared using the PCR products and next-generation sequencing was performed. Mutation rates in each group, across different pEditor variants, were calculated.
(§1) HEK293T cells were obtained from ATCC and were grown in high-glucose (4.5 g/L) DMEM supplemented with GlutaMAX™, 1 mM sodium pyruvate, 10% FBS, 100 units/mL of penicillin and 100 μg/mL of streptomycin in a humidified chamber with 5% CO2 at 37° C. Cells were maintained at ˜80% confluence in 24-well plates on the day of transfection. 250 ng of pTarget and 250 ng of pEditor plasmids were mixed together with 1 μl of TransIT-X2 reagent (Mirus) and the mixture was incubated in 50 μl of Opti-MEM® (Thermo Fisher Scientific™) for 30 min. The mixture was then added drop-wise to each well. […]
To test whether fusing a cytidine deaminase to T7 RNAP maintained T7 RNAP activity, pTarget and various pEditor plasmids were transfected into HEK 293T cells and EGFP fluorescence under each condition was measured.

[2] = test system: 2000-bp window downstream of a T7 promoter on pTarget in HEK293T cells; assay: Mutation rates in the 2000-bp window of the pTarget plasmid by high-throughput sequencing; type: cell-based, human; conditions: cytidine deaminase only
Method: as §1
To sequence the targeted region (˜2000 bp) on pTarget, plasmids were extracted from ˜1 million cells using Qiaprep Spin Miniprep Kit. PCR was performed using those plasmids as templates (primer sequences are shown in Table 2 above. Ampure® XP beads (Beckman Coulter™) were added to samples at a 0.8:1 ratio to size select for the pcr'ed fragments. The concentration of each sample was measured by Qubit™ (Thermo Fisher Scientific™). 1 ng of DNA at a volume of 2.5 μl from each sample was used as input for the subsequent library preparation. Sequencing library was prepared following the Nextera® XT Kit protocol (Illumina®) except that half the amount of each reagent was used. To sequence the targeted loci, genomic DNA was extracted from ˜1 million cells using the Quick-DNA™ Kit (Zymo Research™). […]

B1: pAPOBEC: control plasmid expressing deaminase alone (rat APOBEC1) (protein, UniProt P38483 1-229, looked up)
C->U-editing enzyme APOBEC-1: MSSETGPVAVDPTLRRRIEPHEFEVFFDPRELRKETCLLYEINWGGRHSIWRHTSQNTNKHVEVNFIEKFTTERYFCPNTRCSITWFLSWSPCGECSRAITEFLSRYPHVTLFIYIARLYHHADPRNRQGLRDLISSGVTIQIMTEQESGYCWRNFVNYSPSNEAHWPRYPHLWVRLYVLELYCIILGLPPCLNILRRKQPQLTFFTIALQSCHYQRLPPHILWATGLK
[1]
  EGFP expression / EGFP signals: not
[2]
  C->T and G->A mutation rates compared with background (pT7) error rates: not statistically different from the background error rates
